From a protein production outcome set (Wang et al. 2014) come the findings set out here.

The nature of this series: label from the status in PepcDB records.

Turning to “MVKQGVFMKTDQSKVKKLSDYKSLDYFVIHVDLQIDLSKKPVESKARLTVVPNLNVDSHSNDLVLDGENMTLVSLQMNDNLLKENEYELTKDSLIIKNIPQNTPFTIEMTSLLGENTDLFGLYETEGVALVKAESEGLRRVFYLPDRPDNLATYKTTIIANQEDYPVLLSNGVLIEKKELPLGLHSVTWLDDVPKPSYLFALVAGNLQRSVTYYQTKSGRELPIEFYVPPSATSKCDFAKEVLKEAMAWDERTFNLECALRQHMVAGVDKYASGASEPTGLNLFNTENLFASPETKTDLGILRVLEVVAHEFFHYWSGDRVTIRDWFNLPLKEGLTTFRAAMFREELFGTDLIRLLDGKNLDERAPRQSAYTAVRSLYTAAAYEKSADIFRMMMLFIGKEPFIEAVAKFFKDNDGGAVTLEDFIESISNSSGKDLRSFLSWFTESGIPELIVTDELNPDTKQYFLKIKTVNGRNRPIPILMGLLDSSGAEIVADKLLIVDQEEIEFQFENIQTRPIPSLLRSFSAPVHMKYEYSYQDLLLLMQFDTNLYNRCEAAKQLISALINDFCIGKKIELSPQFFAVYKALLSDNSLNEWMLAELITLPSLEELIENQDKPDFEKLNEGRQLIQNALANELKTDFYNLLFRIQISGDDDKQKLKGFDLKQAGLRRLKSVCFSYLLNVDFEKTKEKLILQFEDALGKNMTETALALSMLCEINCEEADVALEDYYHYWKNDPGAVNNWFSIQALAHSPDVIERVKKLMRHGDFDLSNPNKVYALLGSFIKNPFGFHSVTGEGYQLVADAIFDLDKINPTLAANLTEKFTYWDKYDVNRQAMMISTLKIIYSNATSSDVRTMAKKGLDKVKEDLPLPIHLTFHGGSTMQDRTAQLIADGNKENAYQLH”, the protein production entry was “failed”.

In the case of “MVKRANTFAMRPLTADDEQVLRDLLDASAALWNEINYQRLMRYNDKDGFEDEDVWDADTGALEGKYKAVLGASTAQTVRRANTEAWRSFFRLKKQFHDESNTSVTEHPEPPGFRGNKDDGRVLKGVVRKDAYSVEWGDRSRLEMVVGEQLRDRHNSPKSRLRLEIVGDPNWSDYEDQGRLELWYDETDCTFRASQPVTVSDDARATPLANEKAALDIGANNLVACTTTTGQQYLYEGRELFQRFRETTREIARLQSKLPEGRYSSKRIRRLYRKRTRRRDHAQETLCRDLLEQLYGEGVDTVYIGGLTDVLETHWSAETNAKTHNFWAFKQFTERLAWTADEYGISVEVRSEAWTSQECPQCGSTDRTTRQQDTLTCPCGFEGHADVTASETFLERHTEKAVRPMARPVRFEWDDHEWSESPRSPARESPKEQRTDPSTVPRDGNVVSGDSLEHHHHHH”, the protein production result is reported as “failed”.

Regarding “MVKSDIIIVKNFHGVFCLNLVNEIFENKYKIIDILGKGGMSTVYLAKDIKLQKFWAIKEVSNNINDTSKLKVDLLAETNILKKLDHPALPRIVDIIKRDESLYIVMDFIDGVSLDKFIHKNGAINEKVVLDWAKQICDVLSYLHSQKPNPIIYRDMKPGNLMLTQNGKIKLIDFGIAREYKKEVSKDTTYIGTRGYAAPEQYGDCQSDARTDIYSFGVTLYHMLTGKGPNDPPFELKPVRELNSSLSEGIEHIIEKSTRQDPSLRYQNVDEMLYDIKNIHKLNSKYKKQLVKKYIKVAASACLFIFSVFLIISGVLGIKSDSANEYNNIIENGSKQNGDKAVEYFKQAVDKNSSNPKAYIKIIDTYLENGEYDQSIDFIETNLNNKQSELLKDNELLFKIGMAYFDDESYAKAYQYFNKIKGADISISEPLKYYKPVANALSKVDLQNKDKIVSSITQLEKYIDSRSDVDYKVESYITLAELYRDNPQIFPQNTDKEIGVLEKASSVSANKNNAILYGQLGQAYFDKASESKIEQDKYNFYLNKALDSYKNSIQMGSKISNTYCKLGLIYKYLGNTAESKNTFQKETQLFSDDYKGYMEMALLEYDSQQSAAPETRNYSEFVKYYNSTVSKKYNENDVDFMTLKQEYNDLKNQGVIK”, the protein production entry was “failed”. In the case of “MVKSFPKGKHRQRIRLWLGSLVLAALLVGGGLFSWYHWRSPSLKPLYTLTVEAPPQTLPELEQWAQSADLLKRDRARYLLAVESLSQRQPQVALQWLQNLEQTYRPMAAPILLLRAEAYRQQGDSRRAQETWEQLLRDYGSEPEAAIALLSLNQPQRAIARFPQHPAVVHYVAQQLEKNPDQVPYLKLVARYGLFLQGYGTYLEILRQRYADQLTPADWEAIAFGYWEKMQYAPAAEAYAKARPTPLNLYRVGRGRQLSGERTGAIAAYQALIQRFPNSSEAALAQLRLARLAKTAAERLPLLAKCLQLATENQAPAIAADALLEQYQAYRELGNTKGAQQSQQQLFKTYPQSSAAAELRWQLAQGAAQKRQWSQAQQWVREILKFNPESELAARAAFWQGKWQGEAGQPQAQRQTWQLVTERYPHTYYAWRAASLLQKPVGTFTTLRQQRPSVAGDRQPLLPLATGSPTLQELYLLRQFQEAWQRWQWEFQNRVTPTAAEQLTDGLIRLGVGEYLDGIFMLQNLFTRAAREPQVATFFAPIRRDLRFWYALYPLPYWELVKKWSLAHNLNPLLVMALIRQESRFEKDIRSVVGATGLMQLMPETAAWIAQQLNLEDYSLVDPEHNIRLGTWYFDYTHNQYNQNTLLALASYNAGPGNVSQWLERFDIGDSDRFVESIPFPETYGYVKSVLENYWNYWQLYAQP” it was “failed”; in that of “MVKTRAQRIKRMSVVDALCIRSQISVKSARYCKTVSKHLAKLQLAESGKNSSLVVCPSMGKTMKLYSMDAKRCKLSLLSTIDPSQRTPEVFMYMISSYNGIICCVNMIYDEDVENKFCDLQIWICNPITKETLLLPQGTPSFEFEPSIGVAYGSDVSDYKVYRIFCTGKIIPEERGPAEGFYVQEGRFFTKYGHSLAYECEVYSSSTGSWKNIGTVPCLPMSCSLRPYRRTGHIFVGGKVYWLVSLDAPGKILSVDLEGKFEVINLPAYADGLREDEQITEASHLINLKGSLGLLVLHPENMDVWVWKHDGERYSWVFQFKDVVPIKDDELILAVTALDNKIICVNETHWRIYDMETEKWKRRKSPRTGFRNPVVLPFTESVLPCNGGVKQ”, “failed”; in that of “MVKVSIIIPIYNVENYLDKCLDTAVNQTLGCIEIIGIDDGSTDKSRDILNKYAKKYSFIKIINKENGGLSSARNTGIINAKGEYIYFLDSDDYIEYDSMKICYEIATKNKLDIVSFDAESFVDGEGFTKKLKKYDRKDILDGNIKMGCEYFCELIKNKCYTASACLNFYRREFLIDNNLFFYDGILHEDELYTVKAYTLANKVRYIPYKLYFRRLRSNSITTQSISEKHLYGRLIAARESYRHYLGYKDVFDNDTNTCLLNHISNMYYFMLKDIYENKRIYNKRYIIEDKIINDIKSKKDIKSFKLDLQYRFPLIIYTIKKYLKKD”, “failed”. With “MVLAGGVGKRLLPLTRERPKPYLPLAGKPLYMYAVEQVAMVRSLLDRAVMVTPPGHPTPPGSLPSWLDTVEQQGEGVEAGLATALKRLGGGEEVVVSFVGYLARPNTLVRHVLDFYSVTRYKLVLALAPVTRGSESFGFVDADPSTGRVLGFSGSREEWMAGRGRVFAGVLAGDPEALEVLAGEGFVEGINTLARRGLVGSVVWPGEWLEVGYPCDLLEAPRLVVEAWAAVISAKARVARSSVIQGGVVIEEDAEVGEGAVVEGPAYLGRGAVVGRNSVVGPGVVLEEGAVVGDLVSIERSVMLERAEASGPSRLEGVVIGDGAYIAPLAAATNREGCTVVAPKTRLGPRATLEPGKTYTLEHHHHHH”, the protein production entry is on record as “failed”.

Take “MVLEIGLPPLHVGFIMAYSLLAASLSIFLGLALAEFDVVAHAVLAGYYAGLFFPMSVYTNFFTAAASGAPRPAKEYLPLLLAFILAAVAPLHGSTSTLATLFLLSQAFLLYYMALQAGRFRRDALARFSALAPPISGTGASLILLSSSQLGFLDALMSLTLAFSTPVPLLMAPMAIGASIYGLGPARGKEAIIRLSPALTAIPASILSVLTLSINPYLLPLSLYLVVMRPWRIVSELISVRRPKPPQLYLLSVHAATLAAIVSSLILASNSNIVEAGHAIMIGVIAPHALLHSIVRGGEIPFTRRPRSWTPIPPLLLAASTPLRFASKEASLALALLALSIHVASILDPHPRNIIPRAFRVEGGKQQSATTGG”: the protein production entry is on record as “failed”. As to “MVLIYCYKYFHEFMEAFDRIQKNIMEAHMKKVIGAATATVFGLGAFTTTATAETIVTADVLNVREKPTTESKVVEKVKNGQELKVINTEDGWSKIELNGKEVFVSSEFTKDIYHVTANLLNVRTEANTESKILGRLKKDDVIESTNQVKDGWLQFEYKGKTAYVNVSFLSSTAPVEKKADEKTKQVAKVQKMVKAKEEAKTQKVTKAKETIKPKEEEKVQEVVKPKEEEKVQEVVKPKEEEKVQEVVKPKEEEKIQEVAKPKEEAKVQEVAKPKEEEKVQEVAKPKEEEKVQEVVKPKEEEKVQEVAKSKEEAKVQEVAKPKEEAKVQEVVKPKEEAKVQEEAKAQEIAKAKEEAKAQEIAKAKEEEKAREIAKAKEEAKAQEIAKAKEEAKAQEIAKAKEEAKAQEIAKAKEEEKAREIAKAKEEAKAQEIAKAKEEAKAREIAKAKEEAKAREAIKAKEESKNNTQSAKRELTVVATAYTADPSENGTYGGRVLTAMGHDLTANPNMRIIAVDPKVIPLGSKVWVEGYGEAIAGDTGSAIKGNRIDVLMGSKSKAMDWGRQTVKVKIL”, the protein production result is listed as “failed”. The result for “MVLKGDAKRIVAMSSTHIAMLDAIGEVRCITGVSGIDYISNPDIQARRDSIGDVGYEGNINYELLLSLDPDLVLLYGVNGASAMESKLEELDIPFMYVGDYLEESPLGKAEWMVVLSEVTGKREKGEKAFAAIPVRYNALKKKVADSTLGLEHHHHHH” reads “not failed”. “MVLLLRYRSLTINLTPLIPKSQKFHTLQSFRNPNFISIPKISASTNNPTTTTNRSISDATKFAKSVLFIPPGVEIEELTDDMVLPGSNIVIGPFAGHSQIKEVEFVKSSARARDCPKDDRPEIAILGRSNVGKSSLINCLVRKKEVALTSKKPGKTQLINHFLVNKSWYIVDLPGYGFAKVSDAAKTDWSAFTKGYFLNRDSLVCVLLLIDASVPPQKIDLDCANWLGRNNVPMTFVFTKCDKMKATKGKRPDENIKAFQQIIRENFKVHPPWILTSSVSGLGRDELLLHMSQLRNYWDQ”: the protein production result is on record as “failed”. In the case of “MVLSEIFRGNNEVREAARAGVQIDTVSVASASDAASAADGSGKITGAIRPSAVAGSFYPADRTALKQLINQQLDYGRKLLQQLEPTLPAGVPRAVIVPHAGYIYSGTAAALAYALLERGRGSVTRAVIVGPTHRVAVRGVACSTAAAFETPLGTVPVDIAAERKALGLSVNEPLRSGTHARPGAPAPAMIVNAPTHAQEHAVEVQIPFLQTVLGPDLTIVPLNAGDATPQEVGDVLRALWGGPETVIVISSDLSHYHPHEVARALDDQTIADIAALHLPIHPRRACGAYPINGLLDVLKGRKDMRLFELGCSTSGDDGVVALAGQPRPAMRDADEPVVGYVSFAAWESKPEADALAGADDLGTSGTPSHGEVLLKLARAAIRERLHIEHPTAADSTASILAANPWLNEPGACFVTLTEGGRLRGCIGSLVAHRSLGKDVAEHAVDAATRDPRFTPVTAAEYPLLNVEVSVLGEPEPITVNSCDADSRGTGSKTATLASLQSGPQTDAVKRDGSNVERPVRSRTELEEVLRPGKDGLILADRRGRSATFLPQVWDELPDPHDFVAHLLAKAGIRPSYDWTDSEIDCQRYEVTAYAEH” it was “failed”.

In the case of “MVLSVVVVGKPRCRSIAVAARERLHRYGEYPMSSNNASGKVVSVDEQAFENAGEQAADEDGFPVVDETPEFEAAVEQETQAKVDANHPDGIADTSEDRIHGVTLEQEERIRAREAELERISAQAELGTQDGREQRTRDIAAKRSAVRRAEFQTRAASVDPMADPERDDPRAELTQEQLAAVNKQSMRLAEKLDGWSRAAIGRRLGEAVVGGKDVTSAVVGVFEELQTAPGTVIPIGKLEDVNRKEVSIEGTVTRLWKPSSAAISQVGLIEDESGKTKFTSWVASEQPWIEEGEHVRIHGAAKNWYNGRVSVALTGWSTVHFPERGRWWEALEHHHHHH”, the protein production entry is “failed”.
